Like-named read-outs stand apart in the source and are kept apart here. Each block holds one substance with its values, some of them ahead of it.
Experiments:
PRMT5 = PRMT5 (UniProt O14744); test: co-IP and immunoblot; conditions: reference: LSH wild type; sites S503

binding against the reference (PRMT5): stronger
Substance: LSH (lymphoid-specific helicase; HELLS) (from UniProt Q9NRZ9) LSH S503A

Substance: LSH (lymphoid-specific helicase; HELLS, PASG, SMARCA6): Lambda Protein Phosphatase (λPP)
other (phosphorylation at S503): increases

Substance: LSH (lymphoid-specific helicase; HELLS, PASG, SMARCA6): MAPK1 shRNA knockdown; LY3214996 (MAPK1/2 inhibitor)
other (phosphorylation at S503): increases

Substance: LSH (lymphoid-specific helicase; HELLS, PASG, SMARCA6): R309A
localisation_or_trafficking (methylation at R309): no change
other (methylation at R309): increases

Substance: LSH (lymphoid-specific helicase; HELLS, PASG, SMARCA6): R507A
other (methylation at R507): no change

Substance: LSH (lymphoid-specific helicase; HELLS, PASG, SMARCA6): R541A
other (methylation at R541): no change

Substance: LSH (lymphoid-specific helicase; HELLS, PASG, SMARCA6): S503A
localisation_or_trafficking (phosphorylation at S503): no change
other (phosphorylation at S503): increases

Substance: LSH (lymphoid-specific helicase; HELLS, PASG, SMARCA6): S503D phosphomimic
other (phosphorylation at S503): decreases
